The target of this assay is NRC3 NB-ARC domain (NRC3^NB-ARC, Val-152 to Ser-507) (Nicotiana benthamiana). The experiment in a line: SEC. On the technique in general: In gel filtration, larger molecules generally elute earlier.

This passage reports stoichiometry N results from PMC8412950.

The stoichiometry N is a count of units in the complex or per binding partner.

In turn, “Recombinant SS15 protein (Ser-25 to Ile-246, lacking signal peptide) (domain or fragment)” yielded a stoichiometry N of 1.
